Source: IntAct's records for PubMed 11779505

B1: Mothers against decapentaplegic homolog 4 (Homo sapiens), Q13485 (parent)
chain: MDNMSITNTPTSNDACLSIVHSLMCHRQGGESETFAKRAIESLVKKLKEKKDELDSLITAITTNGAHPSKCVTIQRTLDGRLQVAGRKGFPHVIYARLWRWPDLHKNELKHVKYCQYAFDLKCDSVCVNPYHYERVVSPGIDLSGLTLQSNAPSSMMVKDEYVHDFEGQPSLSTEGHSIQTIQHPPSNRASTETYSTPALLAPSESNATSTANFPNIPVASTSQPASILGGSHSEGLLQIASGPQPGQQQNGFTGQPATYHHNSTTTWTGSRTAPYTPNLPHHQNGHLQHHPPMPPHPGHYWPVHNELAFQPPISNHPAPEYWCSIAYFEMDVQVGETFKVPSSCPIVTVDGYVDPSGGDRFCLGQLSNVHRTEAIERARLHIGKGVQLECKGEGDVWVRCLSDHAVFVQSYYLDREAGRAPGDAVHKIYPSAYIKVFDLRQCHRQMQQQAATAQAAAAAQAAAVAGNIPGPGSVGGIAPAISLSAAAGIGVDDLRRLCILRMSFVKGWGPDYPRQSIKETPCWIEIHLHRALQLLDEVLHTMPIADPQPLD

Variants of: B1
Conditions: with smad1_human SMAD1, Q15797
Sequence of smad1_human SMAD1, Q15797 (Q15797 whole entry): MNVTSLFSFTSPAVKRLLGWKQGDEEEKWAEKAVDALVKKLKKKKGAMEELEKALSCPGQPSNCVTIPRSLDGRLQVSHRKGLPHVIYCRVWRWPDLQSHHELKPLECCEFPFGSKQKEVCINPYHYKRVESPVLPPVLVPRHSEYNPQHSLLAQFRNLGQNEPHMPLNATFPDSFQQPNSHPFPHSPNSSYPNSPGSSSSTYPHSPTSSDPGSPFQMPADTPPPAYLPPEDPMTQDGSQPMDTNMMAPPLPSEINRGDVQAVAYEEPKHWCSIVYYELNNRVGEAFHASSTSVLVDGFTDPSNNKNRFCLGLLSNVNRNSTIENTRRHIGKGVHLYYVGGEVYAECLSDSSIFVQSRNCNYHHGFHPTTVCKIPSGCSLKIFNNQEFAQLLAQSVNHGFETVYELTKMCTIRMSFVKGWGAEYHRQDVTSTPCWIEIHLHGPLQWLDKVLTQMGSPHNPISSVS

| Variant | effect of a mutation on the interaction |
| --- | --- |
| V426S | decreasing interaction strength |
| K507S | disrupting interaction strength |
| D537E | decreasing interaction strength |
| D351H | disrupting interaction strength |
| R515S | disrupting interaction strength |
